Measurements taken from patent US20230322924A1 (Janssen / Centocor, published 2023).

How the values were obtained:
[1] = molecular target: T1, human PSMA on cells (LNCaP) (human, UniProt Q04609 1-750); assay: flow cytometry on LNCaP cells
T1 construct: whole, on cells; also called LNCaP cells
Protocol: PSMA×CD3 bispecific antibodies were tested for binding to PSMA positive cell line, LNCAP, to PSMA negative cell line, PC3. To assess the binding capabilities of the PSMA bispecific antibodies, the cell-binding assay was utilized (described previously). Bispecific antibodies were normalized for protein concentration and then incubated with the same number of cells expressing either human or cyno PSMA. The MFI at each concentration was collected by flow cytometry and plotted as a function of concentration. Data was transformed via log 10 and then plotted. Nonlinear regression of binding curves was done to determine EC50s.

Human CD33 ECD-HSA = molecular target: T2, Human CD33 ECD-HSA (human); assay: SPRi off-rate screen (IBIS MX96)
T2 construct: CD33 ECD fused at the C-terminus to monomeric HSA (C58S) and a six-histidine tag; also called C33W2; huCD33 ECD-HSA

Human CD33-V-HSA = molecular target: T3, Human CD33-V-HSA (human); assay: SPRi off-rate screen (IBIS MX96)
T3 construct: V domain of human CD33 fused to HSA; also called C33W3; huCD33-V-HSA

N-terminal CD3ε peptide = molecular target: T4, N-terminal CD3ε peptide; assay: Biacore 8K SPR, antibody captured on anti-human Ig, peptide as analyte
T4 construct: domain: N-terminal CD3ε peptide
Protocol: Kinetic rate constants were measured by SPR performed using Biacore 8K (GE Healthcare) and anti-human Fc biosensor surfaces. Anti-human immunoglobulin antibodies were covalently coupled to the surface of a CM4 sensor chip (GE Healthcare). Antibodies of interest were captured on the anti-human immunoglobulin sensor chip, followed by injection of N-terminal CD3ε peptide at various concentrations in HEPES Buffered Saline containing 0.05% surfactant P20 (Tween™ 20) and 100 ug/mL BSA. The surface was regenerated with 2 pulses injections of 30 μL of 0.8% phosphoric acid at 100 μL/min. Data reported is the difference in SPR signal between the flow cell containing the captured antibody and a reference cell without captured antibody. Additional instrumental contributions to the signal were removed by subtraction of the data from the blank injection from the reference-subtracted signal. The data were analyzed by fitting association and dissociation phases at all concentrations (global fit) with a 1:1 binding model using the Biaevaluation software (Biacore, Inc.). Data is reported as average+95% CI (Confidence Interval) which is calculated by t value for 95% CI*stdev/square root of the number of replicates.

Soy Trypsin Inhibitor = molecular target: T5, Soy Trypsin Inhibitor (soy, UniProt P01070 25-205); assay: Biacore 8K non-specific binding test, antibody over immobilised protein
T5 construct: also called STI
T5 sequence (looked up): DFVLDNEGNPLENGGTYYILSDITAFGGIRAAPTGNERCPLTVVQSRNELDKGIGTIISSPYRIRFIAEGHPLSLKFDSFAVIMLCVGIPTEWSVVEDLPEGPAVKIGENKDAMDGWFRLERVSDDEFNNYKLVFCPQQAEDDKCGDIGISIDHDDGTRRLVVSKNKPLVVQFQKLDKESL
Protocol: (§1) Non-specific binding of the lead molecule to unrelated surfaces is determined by biosensor technology (Biacore 8K). Antibody is passed over SPR surfaces coated with unrelated proteins. […] Irrelevant surfaces include negatively charged protein (Soy Trypsin Inhibitor), positively charged protein (Lysozyme and β-defensin), hydrophobic (Rh-integrin a4b7), human IgG, sticky protein (Rh-CD19). Proper controls are used in this experiment. Lead is flown over two surfaces, one is a blank and the other has a molecule directly immobilized. The response unit (RU) level is determined by subtracting the blank RU from the test surface RU. […] A response unit ≥100 predicts high risks for non-specific binding to charged/hydrophobic/IgG surfaces which would create challenges during manufacturing and translate to poor PK properties.

rh-CD19 = molecular target: T6, rh-CD19 (UniProt P15391 20-291, limits assumed); assay: as above
T6 sequence (looked up): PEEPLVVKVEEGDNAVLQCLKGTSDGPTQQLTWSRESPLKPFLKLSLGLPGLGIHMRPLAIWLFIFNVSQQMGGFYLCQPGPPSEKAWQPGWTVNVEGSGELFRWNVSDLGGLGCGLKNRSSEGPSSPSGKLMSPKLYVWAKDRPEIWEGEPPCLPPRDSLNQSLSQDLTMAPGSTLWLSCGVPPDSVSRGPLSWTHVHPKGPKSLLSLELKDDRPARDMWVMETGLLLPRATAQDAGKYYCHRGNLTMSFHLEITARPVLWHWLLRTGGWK
Protocol: as §1

rh-Integrin a4b7 = rh-Integrin a4b7 (UniProt P13612 34-977; P26010 20-723, limits assumed); assay: as above
Protocol: as §1

Human IgG = assay: as above
Protocol: as §1

B-Defensin-3 = molecular target: T7, B-Defensin-3; assay: as above
T7 construct: also called β-defensin
Protocol: as §1

Lysozyme = assay: as above
Protocol: as §1

[2] = molecular target: T8, human CD33, full length, on cells (human, UniProt P20138 18-364); assay: flow cytometry on CD33 expressing HEK293F cells
T8 construct: SH2 and OCIAML3 carry SNP rs12459419 (hetero-/homozygous), which leads to a form without the V domain; also called Human CD33 (HEK293F transfectants); CD33 on AML cell lines KG1, SH2, OCIAML3
Protocol: OMNIRat antibodies identified via immunization, v-region cloned and subsequently expressed and purified were characterized further for binding to CD33 expressing cells and binding to recombinant antigens. The purified antibodies were assessed for binding to stably transfected HEK293F cells expressing human CD33 or cyno CD33 (generation described above) along with the parental HEK293F as negative control. Cells were harvested from tissue culture flasks using non-enzymatic dissociation buffer (Thermo Scientific). The flasks were rinsed twice with PBS and dissociation buffer was added to the flask, and the flask was incubated for 10 minutes at 37° C. until the cells became non-adherent. The cells were centrifuged at 300 g for 5 minutes and resuspended at 1.0×10⁶ cells/ml in staining buffer (Becton Dickinson; Franklin Lakes, NJ). 50,000 cells/well of each cell type was plated in 50 μl of staining buffer in round bottom plates (Becton Dickinson). […] 30 μl running buffer containing Sytox Green live/dead dye (ThermoFisher) was added to all wells with cells and the plates were read on an iQue IntelliCyt flow cytometer. […] Antibody binding was assessed by the mean fluorescence intensity in the AF647 channel.

T4 sequence (P07766 22-48): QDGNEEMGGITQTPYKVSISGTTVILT
T7 sequence (P81534 23-67): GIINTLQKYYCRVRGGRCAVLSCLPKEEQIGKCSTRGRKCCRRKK
Chain of Lysozyme (P00698 19-147): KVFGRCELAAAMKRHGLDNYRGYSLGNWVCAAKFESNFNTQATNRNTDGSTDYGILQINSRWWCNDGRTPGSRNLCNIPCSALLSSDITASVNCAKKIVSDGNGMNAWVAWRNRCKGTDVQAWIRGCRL
T1 sequence (Q04609 whole entry): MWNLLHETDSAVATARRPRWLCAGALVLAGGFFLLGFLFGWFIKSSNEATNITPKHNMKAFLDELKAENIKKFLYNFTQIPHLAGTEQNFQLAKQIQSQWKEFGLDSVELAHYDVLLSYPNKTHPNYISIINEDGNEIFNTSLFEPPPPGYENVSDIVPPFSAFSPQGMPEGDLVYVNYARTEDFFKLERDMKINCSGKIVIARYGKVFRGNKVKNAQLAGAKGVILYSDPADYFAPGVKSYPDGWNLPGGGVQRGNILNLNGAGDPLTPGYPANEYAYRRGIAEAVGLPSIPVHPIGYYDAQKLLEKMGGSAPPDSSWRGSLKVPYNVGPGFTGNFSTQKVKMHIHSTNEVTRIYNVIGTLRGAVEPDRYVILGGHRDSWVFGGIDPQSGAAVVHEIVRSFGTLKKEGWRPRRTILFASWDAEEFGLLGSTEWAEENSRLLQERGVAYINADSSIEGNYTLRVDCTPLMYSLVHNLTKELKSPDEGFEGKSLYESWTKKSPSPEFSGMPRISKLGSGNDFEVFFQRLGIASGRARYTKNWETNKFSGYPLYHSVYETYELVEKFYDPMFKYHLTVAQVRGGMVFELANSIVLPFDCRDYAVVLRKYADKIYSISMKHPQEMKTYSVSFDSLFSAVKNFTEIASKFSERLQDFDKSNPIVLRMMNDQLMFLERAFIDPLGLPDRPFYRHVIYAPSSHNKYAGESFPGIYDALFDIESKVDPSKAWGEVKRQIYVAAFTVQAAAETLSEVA
T8 sequence (P20138 18-364 limits assumed): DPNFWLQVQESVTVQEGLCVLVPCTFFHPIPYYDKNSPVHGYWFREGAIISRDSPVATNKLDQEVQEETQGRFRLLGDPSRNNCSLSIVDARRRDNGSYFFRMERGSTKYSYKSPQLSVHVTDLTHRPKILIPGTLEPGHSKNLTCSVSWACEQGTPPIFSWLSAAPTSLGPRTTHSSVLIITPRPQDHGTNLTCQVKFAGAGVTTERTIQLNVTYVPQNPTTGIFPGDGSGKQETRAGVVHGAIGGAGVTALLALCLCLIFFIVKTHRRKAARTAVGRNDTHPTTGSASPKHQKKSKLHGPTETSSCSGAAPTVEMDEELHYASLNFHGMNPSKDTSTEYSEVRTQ

B1: PS3B90 (bispecific antibody, human IgG4 S228P, kappa, lambda, F234A L235A)
heavy 1: not shown
light 1: not shown
heavy 2: QVQLQQSGPRLVRPSQTLSLTCAISGDSVFNNNAAWSWIRQSPSRGLEWLGRTYYRSKWLYDYAVSVKSRITVNPDTSRNQFTLQLNSVTPEDTALYYCARGYSSSFDYWGQGTLVTVSSASTKGPSVFPLAPCSRSTSESTAALGCLVKDYFPEPVTVSWNSGALTSGVHTFPAVLQSSGLYSLSSVVTVPSSSLGTKTYTCNVDHKPSNTKVDKRVESKYGPPCPPCPAPEAAGGPSVFLFPPKPKDTLMISRTPEVTCVVVDVSQEDPEVQFNWYVDGVEVHNAKTKPREEQFNSTYRVVSVLTVLHQDWLNGKEYKCKVSNKGLPSSIEKTISKAKGQPREPQVYTLPPSQEEMTKNQVSLTCLVKGFYPSDIAVEWESNGQPENNYKTTPPVLDSDGSFLLYSKLTVDKSRWQEGNVFSCSVMHEALHNHYTQKSLSLSLGK
light 2: QSALTQPASVSGSPGQSITISCTGTSSNIGTYKFVSWYQQHPDKAPKVLLYEVSKRPSGVSSRFSGSKSGNTASLTISGLQAEDQADYHCVSYAGSGTLLFGGGTKLTVLGQPKAAPSVTLFPPSSEELQANKATLVCLISDFYPGAVTVAWKADSSPVKAGVETTTPSKQSNNKYAASSYLSLTPEQWKSHRSYSCQVTHEGSTVEKTVAPTECS
notes: IgG4 PAA; also called PSMB365 x CD3B376
Does B1 bind [1]?
Result: binds

B2: C33B836 (antibody, IgG4, V domains shown)
VH: QVQLVQSGSELRKPGASVKVSCKASGYTFTNYAMNWVRQAPGQGLEWMGWINTNTGNPTYAQGFTGRFVFSLDTSVSSAYLQISSLKAEDTAMYYCATDRDRGTDYWGQGTLVTVSS
VL: QSALTQPASVSGSPGQSITISCTGTSSDVGDYNYVSWYQQHPGKVPKLMIYDVSNRPSGVSNRFSGSMSGNTASLTISGLQAEDEADYYCSSYSSSSALEVFGGGTKLTVL
notes: OMNIRat-derived; same V regions as C33B48; also called C33H80/C33L73; C33F53
B2 was tested. Which koff (Human CD33 ECD-HSA) did it give?
Its koff is 5.52e-05 s⁻¹.

What about the koff (Human CD33-V-HSA) of the same binder?
Its koff is 3.71e-05 s⁻¹.

B3: CD3B376 (antibody, human IgG4 S228P, lambda, F234A L235A, V domains shown)
VH: QVQLQQSGPRLVRPSQTLSLTCAISGDSVFNNNAAWSWIRQSPSRGLEWLGRTYYRSKWLYDYAVSVKSRITVNPDTSRNQFTLQLNSVTPEDTALYYCARGYSSSFDYWGQGTLVTVSS
VL: QSALTQPASVSGSPGQSITISCTGTSSNIGTYKFVSWYQQHPDKAPKVLLYEVSKRPSGVSSRFSGSKSGNTASLTISGLQAEDQADYHCVSYAGSGTLLFGGGTKLTVLG
notes: Bivalent anti-CD3 parental mAb, IgG4 PAA with F405L and R409K; also called CD3H219/CD3L150
Which results are given for B3?
Kd (N-terminal CD3ε peptide): 26.9 nM; koff (N-terminal CD3ε peptide): 0.00117 s⁻¹; kon (N-terminal CD3ε peptide): 43300 M⁻¹ s⁻¹; response units (RU) (Soy Trypsin Inhibitor): 19.5 RU; response units (RU) (rh-CD19): 0 RU; response units (RU) (rh-Integrin a4b7): 0 RU; response units (RU) (Human IgG): 0.4 RU; response units (RU) (B-Defensin-3): 3.1 RU; response units (RU) (Lysozyme): 0.2 RU

B4: C33B909 (antibody, V domains shown)
VH: EVQLVESGGGLVQPGRSLRLSCVASGFTFDDYAIHWVRQAPGKGLEWVSGLSWNGGNIGYADSVKGRFTISRDNAKNSLYLQMNSLKTEDTAFYYCTKDTPYGDYFDYWGQGTLVTVSS
VL: DIQMTQSPSSVWASVGDRVTITCRASQGISSWLAWYQQQPGKAPNLLIYRSSSLQSGVPSRFSGSGSGTDFTLTISSLQPEDFATYYCQQDNSFPYTFGQGTKLEIK
notes: OmniMouse clone; also called C33H249/C33L115
Does B4 bind [2]?
Result: no binding (tested: 60 nM highest tested)
